The values that follow are results of earlier work, collected in publication PMC11816674.

For orientation: Kd means the concentration at which binding is half-saturated.

For data set [1], the target named is IP3R N-terminal region (UniProt Q14643).
The target of data set [2] is Cav1.4 1579-1605 (Homo sapiens) (UniProt O60840).
Sequence of UniProt O60840 (O60840 1579-1605): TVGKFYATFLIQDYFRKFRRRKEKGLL

Sequence of UniProt Q14643 (Q14643 1-604): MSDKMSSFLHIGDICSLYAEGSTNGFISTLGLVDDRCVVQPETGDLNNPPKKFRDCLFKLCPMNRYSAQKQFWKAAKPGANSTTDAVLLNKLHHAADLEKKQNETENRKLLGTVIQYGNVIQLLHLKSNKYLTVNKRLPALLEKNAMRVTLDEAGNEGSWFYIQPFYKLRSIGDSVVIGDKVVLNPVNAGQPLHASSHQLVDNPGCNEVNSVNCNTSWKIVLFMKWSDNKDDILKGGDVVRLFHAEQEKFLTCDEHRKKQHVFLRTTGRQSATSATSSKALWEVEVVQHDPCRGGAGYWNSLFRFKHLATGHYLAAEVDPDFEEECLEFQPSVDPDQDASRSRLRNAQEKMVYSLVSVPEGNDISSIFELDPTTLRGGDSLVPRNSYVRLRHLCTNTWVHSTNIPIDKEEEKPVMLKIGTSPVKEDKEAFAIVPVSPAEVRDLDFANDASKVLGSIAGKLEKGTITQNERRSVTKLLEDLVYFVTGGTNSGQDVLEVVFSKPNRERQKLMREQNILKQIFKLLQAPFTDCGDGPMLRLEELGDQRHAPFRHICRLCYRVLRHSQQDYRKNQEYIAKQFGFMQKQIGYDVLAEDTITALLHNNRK

In the case of CaBP1 (from UniProt Q9NZU7), the Kd in data set [1] is 3 µM. On to CaBP4 (from UniProt P57796), for which the Kd in data set [2] was 0.8 µM.
